Values of other authors, collected in PMC8625536.

Molecular target: Glu89 (UniProt position 105, IDALNENKVLV)
Settings: Native folded protein; EF loop closed-to-open (Tanford) transition

Substance: beta-lactoglobulin (called BBL in the article) (Bos taurus)
- pKa: ~7.3
